From patent publication US20130231265A1

Tests used:
[1] = system: Syk biosensor peptide GGDEEDYEEPDEPGGKbiotinGG-betaNpa-RKKRRQRRR (SAStide biosensor)
[2] = target: Syk biosensor peptide …biotinGG-betaNpa-… (SAStide biosensor); experiment: cell-based or functional assay
[3] = system: T1, Abl artificial substrate peptide, GGDEDDNDEVAYQAPFEDGGKbiotinGG
T1 sequence: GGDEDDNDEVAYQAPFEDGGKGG

[4] = system: T2, Src family artificial substrate peptide A, GGEEDEDIYEELDEPGGKbiotinGG
T2 sequence: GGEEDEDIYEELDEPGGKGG

Chain of Recombinant Abl kinase (Millipore) (P00519 whole entry): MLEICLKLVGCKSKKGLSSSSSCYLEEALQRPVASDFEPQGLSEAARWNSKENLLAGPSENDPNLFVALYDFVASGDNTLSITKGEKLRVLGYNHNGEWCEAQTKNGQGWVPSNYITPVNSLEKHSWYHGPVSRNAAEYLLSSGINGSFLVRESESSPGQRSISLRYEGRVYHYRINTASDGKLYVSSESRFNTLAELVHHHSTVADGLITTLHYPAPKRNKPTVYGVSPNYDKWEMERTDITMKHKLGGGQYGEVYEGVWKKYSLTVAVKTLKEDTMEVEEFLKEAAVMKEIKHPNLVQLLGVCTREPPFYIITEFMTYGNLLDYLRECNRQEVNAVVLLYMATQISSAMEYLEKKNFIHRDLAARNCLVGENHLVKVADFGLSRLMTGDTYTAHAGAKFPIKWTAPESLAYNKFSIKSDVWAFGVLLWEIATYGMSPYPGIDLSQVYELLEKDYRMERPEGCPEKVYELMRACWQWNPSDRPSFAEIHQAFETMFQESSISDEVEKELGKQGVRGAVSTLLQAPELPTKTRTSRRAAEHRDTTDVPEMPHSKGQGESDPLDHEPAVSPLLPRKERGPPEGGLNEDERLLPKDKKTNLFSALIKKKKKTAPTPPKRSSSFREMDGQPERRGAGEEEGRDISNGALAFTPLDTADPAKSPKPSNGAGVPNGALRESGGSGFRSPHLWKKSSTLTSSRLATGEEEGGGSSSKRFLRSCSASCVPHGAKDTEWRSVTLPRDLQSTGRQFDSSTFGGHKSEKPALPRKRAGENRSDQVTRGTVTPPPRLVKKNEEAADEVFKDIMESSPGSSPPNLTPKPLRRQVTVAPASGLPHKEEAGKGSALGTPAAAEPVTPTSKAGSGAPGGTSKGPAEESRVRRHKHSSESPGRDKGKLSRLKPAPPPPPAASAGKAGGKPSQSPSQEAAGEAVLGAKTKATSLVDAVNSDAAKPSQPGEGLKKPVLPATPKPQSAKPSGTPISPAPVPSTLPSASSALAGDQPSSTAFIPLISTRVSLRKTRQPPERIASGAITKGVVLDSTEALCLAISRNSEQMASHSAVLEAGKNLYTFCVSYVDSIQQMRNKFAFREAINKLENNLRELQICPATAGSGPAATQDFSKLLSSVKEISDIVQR

Substance	in vitro kinase assay, terbium-sensitized luminescence, confirmed by ELISA-based Amplex Red chemifluorescent assay [3]	in vitro kinase assay, ELISA-based antiphosphotyrosine (4G10) chemifluorescence signal [1]	other results
EGFP-conjugated Syk (Syk-EGFP) isolated from DT40 chicken B cells stably expressing Syk-EGFP	–	–	in vitro kinase assay, ELISA-based antiphosphotyrosine (4G10) chemifluorescence signal over time [1]: A substantial increase in signal over time was observed, demonstrating that SAStide was phosphorylated by Syk in vitro; in vitro kinase assay, time-resolved Tb3+ luminescence, percent phosphorylation against time [1]: These data show that enzymatic phosphorylation of SAStide can be detected using time-resolved Tb^3+ luminescence
EGFP-conjugated Syk (Syk-EGFP) isolated from DT40 chicken B cells stably expressing Syk-EGFP (enzyme)	–	–	phosphorylation of the biosensor peptide in Syk(-/-) DT40 cells reconstituted with Syk-EGFP, BCR stimulation by IgM, over unstimulated cells [2]: 2 fold; phosphorylation of the biosensor peptide in Syk(-/-) DT40 cells reconstituted with Syk-EGFP, H2O2 with or without BCR stimulation, over control [2]: 12 fold
Recombinant Abl kinase (Millipore)	ABStide was specific for Abl against the Src-family kinase, Hck	none of which produced any significant signal for phosphopeptide	–
Recombinant Hck	ABStide was specific for Abl against the Src-family kinase, Hck	–	in vitro kinase assay, time-resolved Tb3+ luminescence, percent phosphorylation against time [4]: These data show that enzymatic phosphorylation of SFAStideA can be detected using time-resolved Tb^3+ luminescence
Recombinant Lyn kinase (Millipore)	–	none of which produced any significant signal for phosphopeptide	–
Recombinant Src kinase (Millipore)	–	none of which produced any significant signal for phosphopeptide	–
